Reference: patent US7795217B2, “Methods and compositions for cell-cycle regulation” (priority 2005, dated 2010)

T1: KAP (Homo sapiens, UniProt Q16667)
T1 construct: Full-length KAP protein was coupled to a sensor chip CM-5 shell; made in house
T1 sequence (Q16667 1-212): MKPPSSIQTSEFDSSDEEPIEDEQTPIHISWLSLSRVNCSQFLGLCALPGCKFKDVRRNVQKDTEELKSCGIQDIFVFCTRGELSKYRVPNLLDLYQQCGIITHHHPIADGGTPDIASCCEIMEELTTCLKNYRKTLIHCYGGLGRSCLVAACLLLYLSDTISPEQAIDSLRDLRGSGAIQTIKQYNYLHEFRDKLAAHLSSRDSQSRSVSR

T2: KAP phosphatase (Homo sapiens, UniProt Q16667)
T2 construct: made in house
T2 sequence (Q16667 1-212): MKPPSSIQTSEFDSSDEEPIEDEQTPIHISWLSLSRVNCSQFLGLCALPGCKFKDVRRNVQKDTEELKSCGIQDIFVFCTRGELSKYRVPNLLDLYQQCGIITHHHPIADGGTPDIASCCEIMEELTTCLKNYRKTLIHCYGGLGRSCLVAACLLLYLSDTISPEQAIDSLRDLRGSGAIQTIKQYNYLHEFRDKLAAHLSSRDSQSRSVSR


Columns and labels:
KAP [1] = biological target: T1, KAP; test: Circular dichroism spectroscopy of KAP; details: 5 μM KAP, 50 μM HTm4 C-peptide, 250 to 320 nm
Protocol: Circular Dichroism (CD) spectroscopic measurements were performed on a Jasco J-700 (Jasco, Japan). Spectra measurements were recorded from 250 to 320 nm. The spectra change of KAP was measured by comparing two different KAP samples in the same solution (20 mM Tris-HCl, pH 7.2, 0.15 M NaCl). Sample A contained 5 μM KAP and an excess amount of HTm4 C-peptide (50 μM). The contents of sample B were identical to those in sample A, except for HTm4 C-peptide. The difference in spectra was further converted to parameter (mean residue ellipticity) and plotted on the graph in FIG. 4.
Spectra measurements were recorded from 250 to 320 nm. The spectra change of KAP was measured by comparing two different KAP samples in the same solution (20 mM Tris-HCl, pH 7.2, 0.15 M NaCl). Sample A contains 5 μM KAP and an excess amount of HTm4 C-peptide (50 μM). Sample B was formulated as Sample A, with the exception of the HTm4 C-peptide. The difference in spectra was further converted to parameter (mean residue ellipticity) and plotted.

KAP phosphatase [2] = biological target: T3, KAP phosphatase (Homo sapiens, UniProt Q16667); test: KAP phosphatase activity assay, hydrolysis of pNPP; assay type: biochemical
Protocol: KAP phosphatase activity was examined by the detection of hydrolysis of p-nitrophenyl phosphate (pNPP) (WAKO) as described previously (Song, H., Hanlon, N., Brown, N. R., Noble, M. E., Johnson, L. N., and Barford, D. (2001) Mol. Cell. 7, 615-626). The time course of phosphatase activity for KAP was examined. 20 μl of reaction mixture containing 50 mM Tris-HCl, pH 7.5, 0.15 M NaCl, 2 mM DTT, 0.5 mM EDTA, 3 mM pNPP, 40 μM KAP, 4 μM cdk cyclin A (Upstate Biotechnology), and 20 μM HTm4 was incubated at 30° C. for the indicated times. The reaction was halted by the addition of 0.1 M NaOH. The phosphatase activity in 5 μl of each sample was measured as A410. To investigate the effect of HTm4 on KAP, KAP phosphatase activity was assessed with different HTm4 concentrations in the presence of pNPP. Reaction velocity was measured in the presence of 0.0025-20 μM HTm4.
(§1) 20 μl of reaction mixture containing 50 mM Tris-HCl, pH 7.5, 0.15 M NaCl, 2 mM DTT, 0.5 mM EDTA, 3 mM pNPP, 40 μM KAP, 4 μM cdk2.cyclin A, and 20 μM HTm4 was incubated at 30° C. for the indicated times. The reaction was halted by the addition of 0.1 M NaOH. The phosphatase activity in 5 μl of each sample was measured at 410 nm. […] KAP phosphatase activity was assessed in the presence of increasing amounts of HTm4 using pNPP as the KAP substrate. The reaction velocity was measured in the presence of 0.0025-20 μM HTm4. All reaction mixtures contained 40 μM KAP and 4 μM active cdk2.cyclin A. Reactions were repeated in triplicate. Their average values and standard deviations are shown. […] KAP phosphatase activity was assessed using the Ser/Thr Assay Kit 1 with different concentrations of active cdk2.cyclin A (from 4 to 20 μM) as the substrate in the presence or absence of 40 μM HTm4. […] KAP phosphatase activity was assessed using the Ser/Thr Assay Kit 1 with different concentrations of active cdk2.cyclin A (from 4 to 20 μM) as the substrate in the presence or absence of 40 μM HTm4.

KAP [3] = biological target: T1, KAP; test: Surface plasmon resonance (BioSensor Biacore) protein interaction assay; assay type: binding; details: for binding to KAP-coupled sensor chip (increase in mass): versus uncoupled or nonspecifically coupled chips
Protocol: The immobilization of proteins to sensor chips (CM-5 chip) was performed using a carbodiimide covalent linkage protocol (Amersham Biosciences). KAP was coupled to the sensor chip at 2,800 resonance units (RU). Nonspecific human immunoglobin was coupled to the surface of the sensor chip (anti-β 2m antibody BBM.1) at 2,900 RU. Protein interaction assays were carried out using the BioSensor Biacore 2000 (Biacore). An HTm4 C-terminal peptide composed of 22 amino acids ([…] SEQ ID NO:3) was synthesized. Either full-length HTm4 protein (20 μM), or HTm4 C-terminal peptide (1 mM) in 50 mM HEPES containing 1 mM EDTA, 1 mM DTT, 5% glycerol, and 0.1% Tween 20 was examined at a flow rate of 10 μl/min.
Surface plasmon resonance was used to detect direct binding of purified HTm4 to KAP. Full-length KAP protein was coupled to a sensor chip CM-5 shell (Amersham Biosciences).
The interactions of HTm4 with immobilized proteins were analyzed on a sensor chip (CM-5) cell. KAP was coupled to the surface of the sensor chip at 2,800 RU; nonspecific human immunoglobulin (NS) was coupled to the surface of the sensor chip (anti-β2m antibody BBM.1) at 2,900 RU; UC, uncoupled sensor chip. Binding of 20 μM full-length HTm4 protein in 50 mM HEPES containing 1 mM EDTA, 1 mM DTT, 5% glycerol, and 0.1% Tween 20 was examined at a flow rate of 10 μl/min. […] The interactions of HTm4 with immobilized proteins were analyzed on a sensor chip (CM-5) cell. KAP was coupled to the surface of the sensor chip at 2,800 RU; nonspecific human immunoglobulin was coupled on the surface of the sensor chip (anti-β 2m antibody BBM.1) at 2,900 RU. Binding of 1 mM HTm4 C-terminal peptide in 50 mM HEPES containing 1 mM EDTA, 1 mM DTT, 5% glycerol, and 0.1% Tween 20 was examined at a flow rate of 10 μl/min. Responses from uncoupled cells were subtracted.

[4] = biological target: KAP.cdk2.cyclin A complex (Homo sapiens, UniProt Q16667); test: Cyclin A dissociation assay; assay type: biochemical; details: 1 or 10 μM HTm4 without His tag, His-tagged KAP pull-down
Protocol: The status of the cdk2.cyclin A complex was examined in the presence and absence of HTm4. […] The bound fractions were resolved by SDS-PAGE and Western blotted for the presence of cyclin A (Santa Cruz Biotechnology). An alkaline phosphatase conjugated to anti-rabbit IgG (EY Laboratory) was used to visualize the amount of bound cyclin A present in the KAP cdk2 complex. […] After incubating at room temperature for 5 min, either 10 μl of 10 μM HTm4 (without His tag) or its buffer was added to the reaction mixture. After incubating at room temperature for 5 min, 5 μl of nickel magnet beads was added to each mixture. […] The gel was stained with a silver staining kit (ATTO).
After that, 5 μl of nickel magnet beads was added. Bound fractions were electrophoresed by SDS-PAGE and then detected by Western blotting with anti-cyclin A antibody as the primary antibody, and alkaline phosphatase-conjugated anti-rabbit IgG was used as the secondary antibody. The band of cyclin A is indicated with an arrow. […] After incubation at room temperature for 5 min, 10 μl of 10 μM HTm4 (without His tag) or its buffer was added to the mixture and allowed to incubate at room temperature for 5 mins. 5 μl of nickel magnet beads was added to each mixture. […] The gel was then silver stained. Bands of cyclin A, cdk2, and KAP are indicated with arrows.

KAP phosphatase [5] = biological target: T2, KAP phosphatase; test: KAP dephosphorylation of peptide or protein substrates (Ser/Thr Phosphatase Assay Kit 1); assay type: biochemical; details: 30 min at 30° C.
Protocol: KAP dephosphorylation of phosphorylated proteins or peptide substrates was examined using the Ser/Thr Phosphatase Assay Kit 1 (Upstate Biotechnology) according to the manufacturer's instructions. Phosphorylated Thr^160 of cdk2 and K-R-pT-I-R-R peptide were used as substrates for the assay. Concentrations of KAP and HTm4 were both 20 μM; concentrations of p-cdk2 and peptide substrates (K-R-pT-I-R-R) were 10 and 25 μM, respectively. Reactions were performed in pNPP Ser/Thr Assay Buffer, containing 50 mM Tris-HCl, pH 7.0, and 100 μM CaCl2. To examine the importance of the HTm4 C-terminal region and to confirm the KAP phosphatase activity enhancement effect of HTm4, an HTm4 C-terminal peptide composed of 22 amino acids ([…] SEQ ID NO:3) was synthesized. The phosphatase enhancement activity of the HTm4 C-terminal region was examined using the assay protocol described above.
KAP dephosphorylation of phosphorylated proteins or peptide substrates was examined using the Ser/Thr Phosphatase Assay Kit 1 according to the manufacturer's instructions. Phosphorylated Thr^160 of cdk2 (p-cdk2) and K-R-pT-I-R-R peptides (SEQ ID NO:4) were used as substrates for the assay. […]
Phosphorylated threonine 160 from cdk2.cyclin A, active, and phosphopeptide (K-R-pT-I-R-R) were used as substrates to assess KAP activity. […] The reaction was allowed to proceed for 30 min at 30° C., and absorbance was measured at 650 nm.

KAP phosphatase [6] = biological target: T3, KAP phosphatase; test: Kinetic measurements of KAP phosphatase with active cdk2.cyclin A as substrate (Lineweaver-Burk plot); assay type: biochemical; details: 40 μM HTm4, active cdk2.cyclin A 4 to 20 μM as substrate
Protocol: To investigate the effect of HTm4 on KAP, the initial reaction velocity of KAP was assessed using different concentrations of active cdk2.cyclin A as the substrate in the presence or absence of HTm4. The results were analyzed further using a Lineweaver-Burk plot.
as §1

| CD difference spectrum of KAP with versus without C-peptide (KAP [1]) | enhancement effect on KAP phosphatase activity compared with HTm4 wild-type protein (KAP phosphatase [2]; C-terminal peptide at 0.1 mM, pNPP substrate) | binding to KAP-coupled sensor chip (increase in mass) (KAP [3]; 1 mM HTm4 C-terminal peptide, flow rate 10 μl/min) | increase of dephosphorylating activity of KAP toward phosphorylated cdk2 (KAP phosphatase [5]; 20 μM KAP and HTm4, 10 μM p-cdk2 in the cdk2.cyclin A complex) | KAP dephosphorylation of synthesized phosphopeptide K-R-pT-I-R-R (KAP phosphatase [5]; 20 μM KAP and HTm4, 25 μM peptide substrate) | binding to KAP-coupled sensor chip (increase in mass) (KAP [3]; 20 μM full-length HTm4, flow rate 10 μl/min) | KAP/HTm4 selective binding after premixing HTm4 with KAP (KAP [3]; premixed with KAP, data not shown) | Molecule | dissociation of cyclin A from the KAP.cdk2.cyclin A complex [4] | KAP phosphatase activity toward pNPP substrate (KAP phosphatase [2]; 20 μM HTm4, wild-type KAP, 4 μM active cdk2.cyclin A) | effect of increasing HTm4 on KAP phosphatase activity (reaction velocity) (KAP phosphatase [2]; 0.0025-20 μM HTm4, pNPP substrate, 40 μM KAP, 4 μM active cdk2.cyclin A) | Vmax of KAP phosphatase activity in the presence of HTm4 (KAP phosphatase [6]) [nM/min] | Km (KAP phosphatase [6]; read-out: Km of KAP phosphatase activity in the presence of HTm4) [µM] |
| --- | --- | --- | --- | --- | --- | --- | --- | --- | --- | --- | --- | --- |
| spectral change was found at 270-280 nm | comparable enhancement effect | immediate increase in mass was observed |  |  |  |  | CNANCCNSREEISSPPNSV (Synthetic HTm4 C-terminal Peptide) [HTm4 C-peptide] |  |  |  |  |  |
|  |  |  | more than 6 fold | potentiates dephosphorylation | immediate increase in mass was observed | abolished | HTm4: Recombinant human HTm4 (MS4A3) full-length protein purified from E. coli, His tag cleaved (protein, listed as Homo sapiens) MASHEVDNAELGSASAHGTPGSEAGPEELNTSVYQPIDGSPDYQKAKLQVLGAIQILNAAMILALGVFLGSLQYPYHFQKHFFFFTFYTGYPIWGAVFFCSSGTLSVVAGIKPTRTWIQNSFGMNIASATIALVGTAFLSLNIAVNIQSLRSCHSSSESPDLCNYMGSISNGMVSLLLILTLLELCVTISTIAMWCNANCCNSREEISSPPNSV | dissociated from the complex in a dose-dependent manner | significantly enhanced | linearly increased | 17.5 | 8.33 |
